Results reported in patent publication US6379665B1, “Phospholipase D polypeptide and DNA sequences” (Onyx Pharmaceuticals, Inc., priority 1996, dated 2002).

B1: hPLD1a: human phospholipase D1a, approximately 1074 amino acid protein, SEQ ID NO:2 (protein, listed as Homo sapiens)
chain: MSLKNEPRVNTSALQKIAADMSNIIENLDTRELHFEGEEVDYDVSPSDPKIQEVYIPFSAIYNTQGFKEPNIQTYLSGCPIKAQVLEVERFTSTTRVPSINLYTIELTHGEFKWQVKRKFKHFQEFHRELLKYKAFIRIPIPTRRHTFRRQNVREEPREMPSLPRSSENMIREEQFLGRRKQLEDYLTKILKMPMYRNYHATTEFLDISQLSFIHDLGPKGIEGMIMKRSGGHRIPGLNCCGQGRACYRWSKRWLIVKDSFLLYMKPDSGAIAFVLLVDKEFKIKVGKKETETKYGIRIDNLSRTLILKCNSYRHARWWGGAIEEFIQKHGTNFLKDHRFGSYAAIQENALAKWYVNAKGYFEDVANAMEEANEEIFITDWWLSPEIFLKRPVVEGNRWRLDCILKRKAQQGVRIFIMLYKEVELALGINSEYTKRTLMRLHPNIKVMRHPDHVSSTVYLWAHHEKLVIIDQSVAFVGGIDLAYGRWDDNEHRLTDVGSVKRVTSGPSLGSLPPAAMESMESLRLKDKNEPVQNLPIQKSIDDVDSKLKGIGKPRKFSKFSLYKQLHRHHLHDADSISSIDSTSSYFNHYRSHHNLIHGLKPHFKLFHPSSESEQGLTRPHADTGSIRSLQTGVGELHGETRFWHGKDYCNFVFKDWVQLDKPFADFIDRYSTPRMPWHDIASAVHGKAARDVARHFIQRWNFTKIMKSKYRSLSYPFLLPKSQTTAHELRYQVPGSVHANVQLLRSAADWSAGIKYHEESIHAAYVHVIENSRHYIYIENQFFISCADDKVVFNKIGDAIAQRILKAHRENQKYRVYVVIPLLPGFEGDISTGGGNALQAIMHFNYRTMCRGENSILGQLKAELGNQWINYISFCGLRTHAELEGNLVTELIYVHSKLLIADDNTVIIGSANINDRSMLGKRDSEMAVIVQDTETVPSVMDGKEYQAGRFARGLRLQCFRVVLGYLDDPSEDIQDPVSDKFFKEVWVSTAARNATIYDKVFRCLPNDEVHNLIQLRDFINKPVLAKEDPIRAEEELKKIRGFLVQFPFYFLSEESLLPSVGTKEAIVPMEVWT
B2: PLD1: purified recombinant mammalian PLD1 (SEQ ID NOS:2 or 5), a/b form not specified (protein, UniProt Q13393 1-1074, looked up)
Phospholipase D1: B1 chain
B3: hPLD1b: human phospholipase D1b splice variant, approximately 1036 amino acid protein, SEQ ID NO:5 (protein, listed as Homo sapiens)
chain: MSLKNEPRVNTSALQKIAADMSNIIENLDTRELHFEGEEVDYDVSPSDPKIQEVYIPFSAIYNTQGFKEPNIQTYLSGCPIKAQVLEVERFTSTTRVPSINLYTIELTHGEFKWQVKRKFKHFQEFHRELLKYKAFIRIPIPTRRHTFRRQNVREEPREMPSLPRSSENMIREEQFLGRRKQLEDYLTKILKMPMYRNYHATTEFLDISQLSFIHDLGPKGIEGMIMKRSGGHRIPGLNCCGQGRACYRWSKRWLIVKDSFLLYMKPDSGAIAFVLLVDKEFKIKVGKKETETKYGIRIDNLSRTLILKCNSYRHARWWGGAIEEFIQKHGTNFLKDHRFGSYAAIQENALAKWYVNAKGYFEDVANAMEEANEEIFITDWWLSPEIFLKRPVVEGNRWRLDCILKRKAQQGVRIFIMLYKEVELALGINSEYTKRTLMRLHPNIKVMRHPDHVSSTVYLWAHHEKLVIIDQSVAFVGGIDLAYGRWDDNEHRLTDVGSVKRVTSGPSLGSLPPAAMESMESLRLKDKNEPVQNLPIQKSIDDVDSKLKGIGKPRKFSKFSLYKQLHRHHLHDADSISSIDSTSNTGSIRSLQTGVGELHGETRFWHGKDYCNFVFKDWVQLDKPFADFIDRYSTPRMPWHDIASAVHGKAARDVARHFIQRWNFTKIMKSKYRSLSYPFLLPKSQTTAHELRYQVPGSVHANVQLLRSAADWSAGIKYHEESIHAAYVHVIENSRHYIYIENQFFISCADDKVVFNKIGDAIAQRILKAHRENQKYRVYVVIPLLPGFEGDISTGGGNALQAIMHFNYRTMCRGENSILGQLKAELGNQWINYISFCGLRTHAELEGNLVTELIYVHSKLLIADDNTVIIGSANINDRSMLGKRDSEMAVIVQDTETVPSVMDGKEYQAGRFARGLRLQCFRVVLGYLDDPSEDIQDPVSDKFFKEVWVSTAARNATIYDKVFRCLPNDEVHNLIQLRDFINKPVLAKEDPIRAEEELKKIRGFLVQFPFYFLSEESLLPSVGTKEAIVPMEVWT

How the values were obtained:
[1] = substrate specificity and transphosphatidylation assay of hPLD1a; type: biochemical
Procedure: Samples of the reaction products were applied to a 1 ml HPLC column of Source 15S resin (Pharmacia Biotech Inc.) and washed with 10 ml of H2O and eluted with a 30 ml linear gradient of 0-1 M CH3COONH4 in water at a flow rate of 1 ml/min. 1 ml fractions were collected and their radioactivity determined by liquid scintillation counting. Compounds were identified by reference to authentic standards. For analysis of phospholipid products, the vescicles were of standard composition except that approximately 10-20×10^3 dpm of [^32P]PC, [^32P]PE or [^32P]PI (specific radioactivity 10,000 dpm/nmol) was substituted for the [^3H]PC. Incubations were exactly as described except that transphosphatidylation assay contained 2% v/v EtOH. The assays were terminated by addition of 232 l of 1:1 CHCl2, MeOH. After mixing and centrifugation, the lower phases were removed, dried under vacuum, and analyzed by TLC on oxalate-impregnated Whatman 60A silica gel plates in a solvent system of CHCl2, MeOH:acetic acid (13:3:1, v/v). […]
To assess hPLD1a's substrate specificity, the standard PLD assay was carried out using [^32P]PE and [^32P]PI following the method as describe in Brown, Cell 75: 1137-44 (1993). […] To determine whether hPLD1a was capable of transphosphatidylase activity, EtOH was added to the reaction mixture and the products analyzed by thin layer chromatography. […]

HL-60 cells = assay: RT-PCR quantification of hPLD1a and hPLD1b during dbcAMP-induced HL-60 cell differentiation; type: cell-based, human; settings: 0.5 mM dbcAMP; for increase in level (printed as activity) on day 1: day 1, RT-PCR; for increase in level (printed as activity) on day 2: day 2, RT-PCR; for increase in level (printed as activity) on day 3: day 3, RT-PCR
Procedure: To analyze changes in the levels of hPLD1 a and hPLD1b during HL-60 cell differentiation induced by dcbAMP, HL-60 cells maintained in RPMI-1640 medium supplemented with 10% fetal bovine serum, 100 units/ml penicillin and 100 µg/ml streptomycin in a humidified atmosphere containing 5% CO2, at 37 C. were grown in RPMI-1640 medium without fetal bovine serum for 24 hours. Differentiation was initiated by the addition of 0.5 mM dbcAMP. Levels of PLD1a and PLD1b were quantified by RT-PCR. Total RNA was isolated from the HL-60 cells at the exponential growth stage by the acid guanidine thiocyanate method following the protocol of Chomczynski, Anal. Biochem. 162: 156-62(1992). Two g of RNA was reverse transcribed by using random hexamer mixed primers. The number of amplification cycles were determined to individual primer sets in order to maintain exponential rate of product amplification. Amplified DNA fragments were subjected to electrophoresis on 1.5% agarose gel and visualized by ethidium bromide staining. The intensity of bands was quantified by a densitometer (Atto Densitograph, Tokyo, Japan). Primer A (Forward): nucleotides 1475 through 1491; primer B (reverse) nucleotides 2133 through 2113 of SEQ ID NO: 1. Amplification conditions used were 94 C. for 30 seconds, 60 C. for 1 minute, and 72 C. for 1 minute; 25-27 cycles.

[2] = standard headgroup release assay, fractions of hPLD1a baculovirus-infected Sf9 cells; type: biochemical; settings: Sf9 cells infected 48 hours
Procedure: To determine the activity encoded by recombinant hPLD1a, control and hPLD1a-encoding baculovirus-infected Sf9 cells were assessed using a standard headgroup release assay that measures the amount of tritiated headgroup (e.g. [^3H]choline) liberated by hydrolysis of the labeled substrate [^3H]PC. The assay procedure measures release of the choline headgroup from the radiolabeled PC and is based on a protocol previously described in Brown, Cell 75:1137-44 (1993). Using standard separation techniques, cytosolic and membrane fractions were prepared from uninfected Sf9 cells or Sf9 cells infected for 48 hours with the hPLD1 expressing baculovirus vector. Sf9 cells infected with native baculovirus vector or PLC-expressing baculovirus vector yielded modest PLD activity levels similar to untransfected cells.

Molecule	transphosphatidylase activity ([1]; EtOH added, [^32P]PC, TLC)	hydrolysis of PE or PI ([1]; [^32P]PE and [^32P]PI as substrates)	increase in level (printed as activity) on day 1 (HL-60 cells)	increase in level (printed as activity) on day 2 (HL-60 cells)	increase in level (printed as activity) on day 3 (HL-60 cells)	cytosolic PLD activity above control ([2]; cytosolic fraction) [fold]	membrane-associated PLD activity above control ([2]; membrane fraction) [fold]	increase over the 3 day differentiation period (HL-60 cells; 3 days, RT-PCR)
B1	catalyzes the formation of [^32P]phosphatidylethanol	unable to hydrolyze PE or PI	approximately 3 fold	approximately 4 fold	less than 4 fold	32	15	–
B2	–	–	–	–	–	–	–	3-4 fold
B3	–	–	less than 2 fold	approximately 3 fold	approximately 3.5 fold	–	–	–
